From paper PMC4666391 (Nucleic Acids Research, 2015)

Tests used:
[1] = molecular target: T1, pre-RC (MCM2–7 double-hexamer on DNA) in the presence of DDK (S. cerevisiae, UniProt P29469 1-868; P24279 1-971; P30665 1-933; P29496 1-775; P53091 1-1017; P38132 …, phosphorylated by DDK, sites not printed | phosphorylated by DDK, sites not printed | phosphorylated by DDK, sites not given); test: SEC; gel-filtration based pre-RC assay: Sld3 or Sld2 (40 nM) added alone to pre-RC with DDK (5 nM); signal corrected for Mcm2 and compared with the reaction without DDK; conditions: both partners purified
T1 construct: Mcm2, subunit of MCM2–7, S. cerevisiae; Mcm3, subunit of MCM2–7, S. cerevisiae; Mcm4, subunit of MCM2–7, S. cerevisiae; Mcm5, subunit of MCM2–7, S. cerevisiae; Mcm6, subunit of MCM2–7, S. cerevisiae; Mcm7, subunit of MCM2–7, S. cerevisiae; DDK was added together with the factors, so the extent of phosphorylation at early times is not known; also called DDK-phosphorylated pre-RC; source: assembled …

[2] = molecular target: T2, pre-RC (MCM2–7 double-hexamer loaded on pUC19-ARS1 DNA) (S. cerevisiae, UniProt P29469 1-868; P24279 1-971; P30665 1-933; P29496 1-775; P53091 1-1017; P38132 …); test: SEC; gel-filtration based pre-RC assay: Sld2 and Sld3 added together to pre-RC, no DDK; 40 nM each for 1 min, titrations (Sld2 60 and 90 nM; Sld3 90 nM) and time course 0.5–30 min, over which binding of both decreased; conditions: both partners purified
T2 construct: Mcm2, subunit of MCM2–7, S. cerevisiae; Mcm3, subunit of MCM2–7, S. cerevisiae; Mcm4, subunit of MCM2–7, S. cerevisiae; Mcm5, subunit of MCM2–7, S. cerevisiae; Mcm6, subunit of MCM2–7, S. cerevisiae; Mcm7, subunit of MCM2–7, S. cerevisiae; Loaded around double-stranded plasmid DNA; also called pre-replicative complex; source: assembled in solution from purified ORC, Cdc6, Cdt1 and MCM2–7 (40 nM …)

B1: Sld2 (purified) (natural protein, S. cerevisiae, UniProt P34252 1-453, looked up)
chain: MYSFELDKLKIELKTWEHDFIDKNKREPTRDDIKSLRTVRQMYKQYSTLKKKQSLQRQKVDTQESVELPAHKKDHDEVVEIGPTPQVYGKAISIFDMNLSPIKPIYMTFTNNIDVNNDNSKTISNESSPRKTILLKSSPADRTLVAEPISSVKRQLNFQMLNASSTRTPTSSPCKNRNGKLVEIKKCSPTINPPLESGKPSGYYGPNSPLKLDEENIHLNISLNSSTKRRLQIAYPSLQKTPSKDQADISTSFSPSPLIRRPLTKSLIELAREHTEIVKEFGVLQEEDIEEEEEGEEGENGYDEKNHEDDFGLEDELIRPKVVKDIFQEDDDNDDSQAREDTFIRKRPKRRKVIRRLRDNDPETETAGFERDVHKELVKLKRRKVAEFLGSTSQISDTEFEHDPEASSGVVSSEQKPTAKRKGRKKYNLVSNNFRRLKLPKKNRFSNGRWGRR
notes: Sld2, S. cerevisiae; it may or may not be the same preparation as GST-Sld2; also called purified Sld2; source: purified
fold increase of binding with DDK, against the pre-RC without DDK [1]: ~2 fold
fold reduction of binding when Sld3 is added, against Sld2 alone [2]: ~4 fold
